Experimental data: patent US8357523B2, “Beta-glucosidase variant enzymes and related polynucleotides” (Codexis, Inc., priority 2009, dated 2013)

Experiments:
[1] = High throughput cellobiose assay: fold improvement in cellobiase activity of CelA variants over a control enzyme (Tables 2A-2D, 3, 5, 6, 7); assay type: biochemical; details: assay of Example 7
[2] = Activity profile at different temperatures and pH using cellobiose (10 g/L) as substrate; assay type: biochemical
Description: β-glucosidase activity was also determined using a cellobiose assay, which used cellobiose as substrate. In a total volume of 100 μL, 25 μL clear media supernatant containing CelA enzyme was added to 10 g/L cellobiose (Fluka Cat. No. 22150, Sigma-Aldrich, Inc., St. Louis, Mo.) in 100 mM sodium phosphate buffer (pH 6-7) or sodium acetate buffer (pH 5-5.5). The reaction was incubated at 45-70° C. for an appropriate time (25 minutes to overnight depending on the enzyme concentration) while shaking. Glucose production was determined using an enzymatic glucose assay (K-GLUC, Megazyme, Ireland). 10 μl of each reaction was added to 190 μl GOPOD reagent (supplied as part of the K-GLUC assay kit). The reaction was incubated at 45° C. for 20 minutes and the absorbance of the solution was measured at 510 nm. The GOPOD reagent contains 50 mM Potassium phosphate buffer pH7.4, 0.011M p-hydroxybenzoic acid, 0.008% w/v sodium azide, glucose oxidase (>12,000 U/L), peroxidase (>650 U/L) and 80 mg/L 4-aminoantipyrine. The glucose oxidase enzyme in the reagent reacts with any glucose present in the sample and produces hydrogen peroxide which then reacts with the 4-aminoantipyrine to produce a quinoneimine dye in quantities proportionate with the amount of glucose present and can be measured spectrophotometrically at 510 nm. Detectable β-glucosidase activity was observed under high throughput screening conditions (i.e., pH 7, 50° C.).
The native CelA activity profile was investigated at different temperatures (40-55° C.) and pH (5.0-8.0) using cellobiose (10 g/L) as a substrate. The experimental and analytical procedures are described in Example 5.
The activity profiles for Variant Nos. 264, 366, 391, 463, and 529 were determined at different temperatures and pH using cellobiose (10 g/L) as a substrate. The experimental and analytical procedures are described in Example 5, incubating the variant with cellobiose at temperatures in the range of 45-80. The results are depicted in FIGS. 7-11. […] The temperature and pH profile for this variant is depicted in FIG. 7. […] The temperature and pH profile for this variant is depicted in FIG. 8. […] The temperature and pH profile for this variant is depicted in FIG. 9. […] (with the pH 6 optimum determined by extrapolation). The temperature and pH profile for this variant is depicted in FIG. 10. […] The temperature and pH profile for this variant is depicted in FIG. 11.

B1: Variant No. 264 (protein)
chain: SAAIAQEGAAPAAMLHPEKWPRPATQRLIDPAVEKRVDALLKQLSVEEKVGQVIQGDIGTITPEDLRKYPLGSILAGGDSGPNGDDRAPPKEWLDLADAFYRVSLEKRPGHTPIPVLFGIDAVHGHGNIGSATIFPHNIALGMTRDPELLRRIGEVTAEEMAATGIDWTFAPALSVVRDDRWGRTYEGFSEDPEIVASYSAAIVEGVQGKYGSKDFMAPGRAVACAKHFLADGGTDQGRDQGDARISEDELIRIHNAGYPPAIDAGVLTVMASFSSWQGIKHHGHKQLLTDVLKGQMGFNGFIVGDWNAHDQVPGCTKFNCPTSLIAGLDMYMAADSWKQLYENTLAQVKDGTIPMARLDDAVRRILRVKVLAGLFEKPAPKDRPGLPGLETLGSPEHRAVGREAVRKSLVLLKNDKGTLPLSPKARVLVAGDGADNIGKQSGGWTISWQGTGNRNDEFPGATSILGGIRDAVADAGGSVEFDVAGQYKTKPDVAIVVFGEEPYAEFRGDVETLEYQPDQKQDLTLLKKLKDQGIPVVAVFLSGRPMWVNPELNASDAFVAAWLPGTEGGGVADVLFTDKAGKVQHDFAGKLSYSWPRTAAQTTVNRGDADYNPLFAYGYGLTYKDKSKVGTLPEESGVPAEARQN
With B1 the “activity (e.g., thermoactivity) over the wildtype A. irakense β-glucosidase” value [1] was “improved activity”, the “pH of optimum activity” value [2] was 6 pH and the “temperature of optimum activity” value [2] was 58 °C.
